Experiment [1] concerns the target CK2alpha-phosphorylated thymidylate synthase fraction (pTS), as used in MST (human) (UniProt P04818). As to the kind of experiment: MST; two proteins in solution, Premium capillaries: labeled DHFR with SHMT 157 uM-4.79 nM; labeled SHMT with TS 62.0 uM-1.9 nM; labeled pTS with SHMT 157 uM-4.79 nM; Kd model fit.
Experiment [2] concerns the target DHFR (Homo sapiens) (UniProt P00374). The experiment in a line: MST. Particulars: cited from earlier work.
The target is the same in experiment [3]. As to the kind of experiment: QCM-D. Particulars: cited from earlier work.
The target of experiment [4] is serine hydroxymethyltransferase, cytosolic (SHMT1), His-tagged, immobilised in QCM-D (UniProt P34896). The experiment in a line: QCM-D (quartz crystal microbalance with dissipation monitoring); two proteins: 5 uM His-tagged SHMT immobilised on His-tag capturing sensor QSX340; tagless ligand introduced (0.1-1.0 uM or 0.5-7.0 uM for TS, pTS or DHFR); 20 mM Tris-HCl pH 7.6, 100 mM (salt not given), 10 mM MgCl2, 0.05% Tween 20, 25 C, 200 ul/min; Langmuir isotherm fit.
Sequence of serine hydroxymethyltransferase, cytosolic (SHMT1), His-tagged, immobilised in QCM-D (P34896 whole entry): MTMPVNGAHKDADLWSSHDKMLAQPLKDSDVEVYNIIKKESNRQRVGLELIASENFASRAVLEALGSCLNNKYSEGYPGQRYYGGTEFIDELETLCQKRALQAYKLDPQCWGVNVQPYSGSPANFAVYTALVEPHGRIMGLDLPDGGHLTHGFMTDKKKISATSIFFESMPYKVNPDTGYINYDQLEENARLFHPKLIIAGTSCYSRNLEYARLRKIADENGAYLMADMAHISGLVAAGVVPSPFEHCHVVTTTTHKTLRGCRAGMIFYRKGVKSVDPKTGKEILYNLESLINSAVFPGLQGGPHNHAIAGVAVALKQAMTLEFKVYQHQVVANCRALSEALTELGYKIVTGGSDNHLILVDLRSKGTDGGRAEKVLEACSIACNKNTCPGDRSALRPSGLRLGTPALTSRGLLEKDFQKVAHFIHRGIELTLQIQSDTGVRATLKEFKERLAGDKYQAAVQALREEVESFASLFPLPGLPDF

Sequence of DHFR (Homo sapiens) (P00374 whole entry): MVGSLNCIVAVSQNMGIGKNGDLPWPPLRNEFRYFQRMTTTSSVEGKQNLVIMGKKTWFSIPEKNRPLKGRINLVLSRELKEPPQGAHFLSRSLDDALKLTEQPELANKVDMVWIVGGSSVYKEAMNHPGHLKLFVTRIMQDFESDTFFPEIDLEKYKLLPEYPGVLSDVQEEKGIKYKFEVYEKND
Sequence of thymidylate synthase (P04818 2-313): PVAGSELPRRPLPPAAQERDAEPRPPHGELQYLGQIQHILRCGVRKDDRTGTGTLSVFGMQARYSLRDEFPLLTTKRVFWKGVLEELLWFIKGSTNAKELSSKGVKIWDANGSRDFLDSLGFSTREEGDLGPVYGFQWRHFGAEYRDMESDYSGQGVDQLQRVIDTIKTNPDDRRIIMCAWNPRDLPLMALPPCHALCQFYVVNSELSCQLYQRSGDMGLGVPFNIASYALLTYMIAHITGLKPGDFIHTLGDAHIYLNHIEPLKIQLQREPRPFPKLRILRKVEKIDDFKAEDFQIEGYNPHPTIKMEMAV
Sequence of CK2alpha-phosphorylated thymidylate synthase fraction (pTS), as used in MST (human) (P04818 whole entry): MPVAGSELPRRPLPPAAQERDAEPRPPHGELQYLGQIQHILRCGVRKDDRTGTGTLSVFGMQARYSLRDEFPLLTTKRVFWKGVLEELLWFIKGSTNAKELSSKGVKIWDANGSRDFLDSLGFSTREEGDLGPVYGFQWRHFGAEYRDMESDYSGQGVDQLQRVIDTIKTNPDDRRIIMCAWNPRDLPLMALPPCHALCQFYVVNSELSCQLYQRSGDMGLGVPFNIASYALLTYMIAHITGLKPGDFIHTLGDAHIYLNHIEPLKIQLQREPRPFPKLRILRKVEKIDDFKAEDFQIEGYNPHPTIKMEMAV

For “serine hydroxymethyltransferase, cytosolic (SHMT1), as used in MST (from UniProt P34896 1-483) (enzyme)”, the Kd – broadly, the constant that tells how readily two partners part at equilibrium – in experiment [1] was 0.219 µM.
With “thymidylate synthase (from UniProt P04818)”, the dissociation constant Kd was 2.8 µM with DHFR (Homo sapiens) [2] and 7.6 µM in the experiment with DHFR (Homo sapiens) [3].
For “CK2alpha-phosphorylated thymidylate synthase fraction (pTS), tagless ligand in QCM-D (from UniProt P04818 1-313) (enzyme)”, the dissociation constant Kd in experiment [4] was 5.35 µM.
